Measured values published in patent publication US20230265151A1, “GIP/GLP1 CO-AGONIST COMPOUNDS” (priority 2020, published 2023).
Substitutions are numbered along the chain they refer to.

B1: Y-Aib-EGT-αMeF(2F)-TSD-4Pal-SI-αMeL-LD-Orn-K((2-[2-(2-Amino-ethoxy)-ethoxy]-acetyl)2-(γ-Glu)-(4-(4-tert-butylphenyl)butanoyl))AQ-Aib-EFI-(D-Glu)-αMeY-LIK((2-[2- … (peptide)
peptide: YXEGTXTSDXSIXLDXKAQXEFIXXLIKGGPSSGAPPPS
modifications: Aib2, αMeF(2F)6, 4Pal10, αMeL13, Orn16, Aib20, D-Glu24, αMeY25; acylated K17, K28 (groups as in name); C-terminal amide
B2: Y-Aib-EGT-αMeF(2F)-TSD-4Pal-SI-αMeL-LD-Orn-K((2-[2-(2-Amino-ethoxy)-ethoxy]-acetyl)2-(γ-Glu)-(4-(4-tert-butylphenyl)butanoyl))AQ-Aib-EFI-(D-Glu)-αMeY-LIEGGPSSGA … (peptide)
peptide: YXEGTXTSDXSIXLDXKAQXEFIXXLIEGGPSSGAPPPSK
modifications: Aib2, αMeF(2F)6, 4Pal10, αMeL13, Orn16, Aib20, D-Glu24, αMeY25; acylated K17, K40 (groups as in name); C-terminal amide
B3: Y-Aib-EGT-αMeF(2F)-TSD-4Pal-SI-αMeL-LD-Orn-K((2-[2-(2-Amino-ethoxy)-ethoxy]-acetyl)2-(γ-Glu)-CO-(CH2)10-CH3)AQ-Aib-K((2-[2-(2-Amino-ethoxy)-ethoxy]-acetyl)2-(γ- … (peptide)
peptide: B1 peptide with E21K, K28E
modifications: Aib2, αMeF(2F)6, 4Pal10, αMeL13, Orn16, Aib20, D-Glu24, αMeY25; acylated K17, K21 (groups as in name); C-terminal amide
B4: Y-Aib-EGT-αMeF(2F)-TSD-4Pal-SI-αMeL-LD-Orn-K((2-[2-(2-Amino-ethoxy)-ethoxy]-acetyl)2-(γ-Glu)-CO-(CH2)10-CH3)AQ-Aib-EFI-(D-Glu)-αMeY-LIEGGP S SGAPPP … (peptide)
peptide: B2 peptide
modifications: Aib2, αMeF(2F)6, 4Pal10, αMeL13, Orn16, Aib20, D-Glu24, αMeY25; acylated K17, K40 (groups as in name); C-terminal amide
B5: Y-Aib-EGT-αMeF-TSD-4Pal-SI-αMeL-LD-Orn-K((2-[2-(2-Amino-ethoxy)-ethoxy]-acetyl)2-(γ-Glu)-CO-(CH2)10-CH3)AQ-Aib-EFI-(D-Glu)-αMeY-LIEGGK((2-[2-(2-Amino-ethoxy)-et … (peptide)
peptide: B1 peptide with K28E, P31K
modifications: Aib2, αMeF6, 4Pal10, αMeL13, Orn16, Aib20, D-Glu24, αMeY25; acylated K17, K31 (groups as in name); C-terminal amide
B6: Y-Aib-EGT-αMeF(2F)-TSD-4Pal-SI-αMeL-LD-Orn-IAQ-Aib-K((2-[2-(2-Amino-ethoxy)-ethoxy]-acetyl)2-CO-(CH2)12-CO2H)FI-(D-Glu)-αMeY-LIEGGPSSGAPPP … (peptide)
peptide: B2 peptide with K17I, E21K
modifications: Aib2, αMeF(2F)6, 4Pal10, αMeL13, Orn16, Aib20, D-Glu24, αMeY25; acylated K21, K40 (groups as in name); C-terminal amide
B7: Y-Aib-EGT-αMeF(2F)-TSD-4Pal-SI-αMeL-LD-Orn-IAQ-Aib-K((2-[2-(2-Amino-ethoxy)-ethoxy]-acetyl)2-(γ-Glu)-(4-(4-tert-butylphenyl)butanoyl))FI-(D-Glu)-αMeY-LIK((2-[2- … (peptide)
peptide: B1 peptide with K17I, E21K
modifications: Aib2, αMeF(2F)6, 4Pal10, αMeL13, Orn16, Aib20, D-Glu24, αMeY25; acylated K21, K28 (groups as in name); C-terminal amide
B8: Y-Aib-EGT-αMeF(2F)-TSD-4Pal-SI-αMeL-LD-Orn-IAQ-Aib-K((2-[2-(2-Amino-ethoxy)-ethoxy]-acetyl)2-(γ-Glu)-(4-(4-tert-butylphenyl)butanoyl))FI-(D-Glu)-αMeY-LIEGGPSSGA … (peptide)
peptide: B2 peptide with K17I, E21K
modifications: Aib2, αMeF(2F)6, 4Pal10, αMeL13, Orn16, Aib20, D-Glu24, αMeY25; acylated K21, K40 (groups as in name); C-terminal amide
B9: Y-Aib-EGT-αMeF(2F)-TSD-4Pal-SI-αMeL-LD-Orn-K((2-[2-(2-Amino-ethoxy)-ethoxy]-acetyl)-(γ-Glu)-(4-(4-tert-butylphenyl)butanoyl))AQ-Aib-K((2-[2-(2-Amino-ethoxy)-eth … (peptide)
peptide: B1 peptide with E21K, K28E
modifications: Aib2, αMeF(2F)6, 4Pal10, αMeL13, Orn16, Aib20, D-Glu24, αMeY25; acylated K17, K21 (groups as in name); C-terminal amide
B10: Y-Aib-EGT-αMeF(2F)-TSD-4Pal-SI-αMeL-LD-Orn-K((2-[2-(2-Amino-ethoxy)-ethoxy]-acetyl)-(γ-Glu)-(4-(4-tert-butylphenyl)butanoyl))AQ-Aib-EFI-(D-Glu)-αMeY-LIK((2-[2-( … (peptide)
peptide: B1 peptide
modifications: Aib2, αMeF(2F)6, 4Pal10, αMeL13, Orn16, Aib20, D-Glu24, αMeY25; acylated K17, K28 (groups as in name); C-terminal amide
B11: Y-Aib-EGT-αMeF(2F)-TSD-4Pal-SI-αMeL-LD-Orn-K((2-[2-(2-Amino-ethoxy)-ethoxy]-acetyl)-(γ-Glu)-(4-(4-tert-butylphenyl)butanoyl))AQ-Aib-EFI-(D-Glu)-αMeY-LIEGGPSSGAP … (peptide)
peptide: B2 peptide
modifications: Aib2, αMeF(2F)6, 4Pal10, αMeL13, Orn16, Aib20, D-Glu24, αMeY25; acylated K17, K40 (groups as in name); C-terminal amide

Molecular target: human glucagon receptor (human, UniProt P47871 26-477)
Test: cell-based or functional assay

| Binder | cAMP EC50 (1.0% HSA) [µM] |
| --- | --- |
| B1 | > 9.95 |
| B2 | > 9.95 |
| B3 | > 9.95 |
| B4 | > 9.95 |
| B5 | > 9.95 |
| B6 | > 9.95 |
| B7 | > 9.95 |
| B8 | > 9.95 |
| B9 | > 9.95 |
| B10 | > 9.95 |
| B11 | > 9.95 |
